T1: human IL-18Rα (IL-18R1) on human cells (KG-1 cells, PBMC, TH1-cultured T cells, whole blood) (human, UniProt Q13478 19-541)
T1 sequence: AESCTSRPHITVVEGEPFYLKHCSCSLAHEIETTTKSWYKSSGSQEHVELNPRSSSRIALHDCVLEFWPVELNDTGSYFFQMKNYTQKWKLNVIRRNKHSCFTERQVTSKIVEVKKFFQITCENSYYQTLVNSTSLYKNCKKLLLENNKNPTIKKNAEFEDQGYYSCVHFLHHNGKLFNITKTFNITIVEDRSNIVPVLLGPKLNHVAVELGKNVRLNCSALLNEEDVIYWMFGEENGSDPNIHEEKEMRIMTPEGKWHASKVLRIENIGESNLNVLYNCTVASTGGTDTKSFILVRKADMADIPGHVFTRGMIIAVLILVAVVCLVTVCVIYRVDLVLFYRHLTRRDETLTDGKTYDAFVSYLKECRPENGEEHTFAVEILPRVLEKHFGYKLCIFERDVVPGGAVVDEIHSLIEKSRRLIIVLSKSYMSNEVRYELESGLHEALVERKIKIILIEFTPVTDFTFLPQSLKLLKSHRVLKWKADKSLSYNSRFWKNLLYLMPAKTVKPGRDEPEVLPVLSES


Tests used:
[1] = biological target: human IL-18Rα (IL-18R1) on human cells (KG-1 cells, PBMC, TH1-cultured T cells, whole blood) (human) (UniProt Q13478); assay: cell-based or functional assay
[2] = biological target: recombinant human IL-18Rα Fc chimera (R&D Systems, Cat. No. 816-LR) (human) (UniProt Q13478); assay: SPR cross-competition, second experiment; antibody 2 injected on hIL-18Rα hFc held by captured antibody 1 (competitor): Mab840
[3] = biological target: recombinant human IL-18Rα Fc chimera (R&D Systems, Cat. No. 816-LR) (human) (UniProt Q13478); assay: SPR cross-competition, second experiment; antibody 2 injected on hIL-18Rα hFc held by captured antibody 1 (competitor): Mab1G12
[4] = biological target: recombinant human IL-18Rα Fc chimera (R&D Systems, Cat. No. 816-LR) (human) (UniProt Q13478); assay: SPR cross-competition, second experiment; antibody 2 injected on hIL-18Rα hFc held by captured antibody 1 (competitor): Mab2D11
[5] = biological target: T1, human IL-18Rα (IL-18R1) on human cells …; assay: cell-based or functional assay

| Molecule | human TH1-assay (IFN-γ after IL-18/IL-12 restimulation), IC90 [pM] [5] [pM] | other results |
| --- | --- | --- |
| anti-human IL-18Rα murine MAb Clone 70625 (R&D Systems #MAB840) (antibody) | – | IL-18 induced IFNγ production by human KG-1 cells, IC50 [pM] [1]: 798 pM; percentage of expected binding response for antibody 2 [2]: 13%; percentage of expected binding response for antibody 2 [3]: 97%; percentage of expected binding response for antibody 2 [4]: 97% |
| humanized Mab1G12-9.6 (antibody, V domains shown) VH: QVQLVQSGAEVKKPGASVKVSCKASDYTFTSNWMHWVRQAPGQGLEWMGTIDPSDSYTYYNQKFQGRVTMTRDTSTSTVYMELSSLRSEDTAVYYCTTSGDYDADRYFDVWGQGTTVTVSS VL: EIVLTQSPGTLSLSPGERATLSCRASKSVSTSGDSYMHWYQQKPGQAPRLLIYLASNLETGIPDRFSGSGSGTDFTLTISRLEPEDFAVYYCQQSRELPLSFGQGTKLEIK | 148 | – |
| humanized Mab1G12-10.5 (antibody, V domains shown) VH: QVQLVQSGAEVKKPGASVKVSCKASDYTFTSNWMHWVRQAPGQGLEWMGTIDPSDSYTYYNQKFQGRATMTVDTSTSTVYMELSSLRSEDTAVYYCTTSGDYDADRYFDVWGQGTTVTVSS VL: DIQMTQSPSSLSASVGDRVTITCQASKSVSTSGDSYMHWYQQKPGKAPKLLIYLASNLETGVPSRFSGSGSGTDFTFTISSLQPEDIATYYCQQSRELPLSFGQGTKLEIK | 283 | – |
| humanized Mab1G12-10.6 (antibody, V domains shown) VH: QVQLVQSGAEVKKPGASVKVSCKASDYTFTSNWMHWVRQAPGQGLEWMGTIDPSDSYTYYNQKFQGRATMTVDTSTSTVYMELSSLRSEDTAVYYCTTSGDYDADRYFDVWGQGTTVTVSS VL: EIVLTQSPGTLSLSPGERATLSCRASKSVSTSGDSYMHWYQQKPGQAPRLLIYLASNLETGIPDRFSGSGSGTDFTLTISRLEPEDFAVYYCQQSRELPLSFGQGTKLEIK | 93.5 | – |

More lines, main results first:

| human TH1-assay (IFN-γ after IL-18/IL-12 restimulation), IC90 [pM] [5] [pM] | Molecule | other results |
| --- | --- | --- |
| 77 | humanized Mab1G12-11.6 (antibody, V domains shown) VH: QVQLVQSGAEVKKPGASVKVSCKASGYTFTSNWMHWVRQAPGQGLEWMGTIDPSDSYTYYAQKFQGRVTMTRDTSISTAYMELSRLRSDDTAVYYCTTSGDYDADRYFDVWGQGTTVTVSS VL: EIVLTQSPGTLSLSPGERATLSCRASKSVSTSGDSYMHWYQQKPGQAPRLLIYLASNLETGIPDRFSGSGSGTDFTLTISRLEPEDFAVYYCQQSRELPLSFGQGTKLEIK | – |
| 399 | humanized Mab1G12-12.6 (antibody, V domains shown) VH: QVQLVQSGAEVKKPGASVKVSCKASGYTFTSNWMHWVRQAPGQGLEWMGTIDPSDSYTYYAQKLQGRVTMTTDTSTSTAYMELRSLRSDDTAVYYCTTSGDYDADRYFDVWGQGTTVTVSS VL: EIVLTQSPGTLSLSPGERATLSCRASKSVSTSGDSYMHWYQQKPGQAPRLLIYLASNLETGIPDRFSGSGSGTDFTLTISRLEPEDFAVYYCQQSRELPLSFGQGTKLEIK | – |
